The target of experiment [1] is T1, Human CD40 (human, UniProt P25942 21-277). Put plainly: cell-based or functional assay.
Experiment [2] addresses T1, Human CD40. Put plainly: FACS blocking of sCD40L binding to CD40 expressing HEK cells. On the procedure: FACS analysis was also used to determine whether the three chimeric antibodies could inhibit binding of soluble CD40 ligand (sCD40L) to CD40. Using CD40 expressing HEK cells, IC50 values were measured. As described in Table 10, each of the chimeric antibodies was able to block CD40 binding to its ligand.

Experiment [3] deals with T2, cyno CD40 (cynomolgus monkey, UniProt G7PG38 21-278).
T2 construct: whole, on cells; also called cyCD40; cynomolgus monkey CD40
Description: FACS on HEK cells expressing cyno CD40.

The target in experiment [4] is T1, Human CD40. Description: cell-based or functional assay. The source holds these as a separate data set.
Experiment [5] concerns the target T1, Human CD40. Description: cell-based or functional assay. The source holds these as a separate data set.
In experiment [6] the target is T1, Human CD40. Put plainly: cell-based or functional assay. The source holds these as a separate data set.
Experiment [7] concerns the target T1, Human CD40. Description: cell-based or functional assay. The source holds these as a separate data set.
Experiment [8] concerns the target T2, cyno CD40. Description: Alexa 647 labeled Ab102 binding to CD40 on the surface of cynomolgus monkey B cells. On the procedure: (§1) The cross-reactivity of Ab102 with CD40 from various species was tested. […] Binding of Ab102 to mouse, rat, and rabbit CD40 could not be detected at concentrations up to 30 μg/mL (200 nM).
The target in experiment [9] is T1, Human CD40. Description: Alexa 647 labeled Ab102 binding to CD40 on the surface of human B cells. The procedure:
as §1

For experiment [10], the target named is T1, Human CD40. Put plainly: cell-based or functional assay. This is another data set of the same source.
For experiment [11], the target named is T3, rat CD40 (rat, UniProt A6JXD6 20-289).
T3 sequence: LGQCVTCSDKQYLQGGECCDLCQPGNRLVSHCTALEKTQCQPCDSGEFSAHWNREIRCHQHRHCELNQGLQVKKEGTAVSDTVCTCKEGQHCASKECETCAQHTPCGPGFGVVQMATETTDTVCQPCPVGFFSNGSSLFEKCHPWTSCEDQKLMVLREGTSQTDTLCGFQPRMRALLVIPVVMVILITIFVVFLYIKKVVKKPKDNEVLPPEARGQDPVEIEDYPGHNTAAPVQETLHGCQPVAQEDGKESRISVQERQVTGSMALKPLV
Put plainly: Alexa 647 labeled Ab102 on the surface of B cells.

Experiment [12] addresses T4, mouse CD40 (mouse, UniProt P27512 20-289).
T4 construct: whole, on cells
T4 sequence (looked up): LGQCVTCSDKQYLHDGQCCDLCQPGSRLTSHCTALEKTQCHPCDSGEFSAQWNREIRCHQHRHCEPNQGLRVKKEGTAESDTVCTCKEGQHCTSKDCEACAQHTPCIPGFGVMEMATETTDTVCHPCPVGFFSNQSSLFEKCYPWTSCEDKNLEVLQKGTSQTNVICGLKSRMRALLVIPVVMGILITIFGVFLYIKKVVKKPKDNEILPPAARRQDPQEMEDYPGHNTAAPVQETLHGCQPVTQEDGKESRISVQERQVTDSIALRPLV
Put plainly: Alexa 647 labeled Ab102 on the surface of B cells.

Experiment [13] has as its target T2, cyno CD40. Description: FACS binding on HEK cells expressing cyCD40. Background: Flow cytometry measures light scatter and fluorescence of single cells or particles in a stream.

Read-outs that look alike come from different tables or passages of the source. Bounds are passed on as bounds.

For orientation: IC50 means the concentration needed to halve the response being measured. The term EC50 denotes the concentration at which the effect is half-maximal.

T1 sequence (P25942 21-277 limits assumed): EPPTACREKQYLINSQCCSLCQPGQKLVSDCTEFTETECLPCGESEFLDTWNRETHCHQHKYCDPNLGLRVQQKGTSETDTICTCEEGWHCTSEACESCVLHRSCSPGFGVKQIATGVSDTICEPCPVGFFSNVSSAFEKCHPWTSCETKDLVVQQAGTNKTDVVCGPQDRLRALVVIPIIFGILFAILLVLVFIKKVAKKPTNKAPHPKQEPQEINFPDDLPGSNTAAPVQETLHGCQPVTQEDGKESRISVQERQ

In experiment [1], MEGACD40L (Enzo) (ligand) had a production of TNF from monocytes, EC50 (agonist assay format) of 1.9 nM.

B1: chimeric Ab3 (chAb3) (antibody, V domains shown)
VH: QVQLQQSGAELARPGASVKMSCKAFGYTFTSYTMHWVKQRPGQGLEWIGYINPSSDYPNYNQKFKDKATLTADKSSSTAYMQLSSLTSEDSAVYYCARWGYSFDYWGQGTTLTVSS
VL: DIVMTQAAPSVSVIPGESVSISCRSSKSLLHSNGNTYLYWFLQRPGQSPQYLIYRMSTLASGVPDRFSGSGSGTAFTLRISRVEAEDVGVYYCMQHLEYPLTFGAGTKLELK
notes: also called chimeric Antibody 3
On to B1, for which the IC50 in experiment [2] came to 1.4 nM. The binding result in [3] is “no binding”. Besides, in [4], the “Antagonist: His-CD40L reporter assay IC50” value was 0.2 nM and the “Antagonist: Jurkat/Reporter assay IC50” value was determined as 0.9 nM.

B2: huAb1v4 (antibody, V domains shown)
VH: EVQLVESGGGLVKPGGSLRLSCAASGFTFSDYGMNWVRQAPGKGLEWIAYISSGRSNIYYADTVKGRFTISRDNAKNSLYLQMNSLRAEDTAVYYCARSWGYFDVWGQGTTVTVSS
VL: DIVMTQSPDSLAVSLGERATINCKSSQSLLNPGNQKNYLTWFQQKPGQPPKLLIYWASTRESGVPDRFSGSGSGTDFTLTISSLQAEDVAVYYCQNDYTYPLTFGQGTKLEIK
Regarding B2, the “Agonist: huCD40 reporter assay IC50” value in [5] was found to be 49 nM.

B3: huAb1v1CDR2v7 (antibody, V domains shown)
VH: EVQLVESGGGLVKPGGSLRLSCAASGFTFSDYGMNWVRQAPGKGLEWIAYISSGRGNIYYADTVKGRFTISRDNAKNSLYLQMNSLRAEDTAVYYCARSWGYFDVWGQGTTVTVSS
VL: DIVMTQSPDSLAVSLGERATINCKSSQSLLNRGNQKNYLTWFQQKPGQPPKLLIYWASTRESGVPDRFSGSGSGTDFTLTISSLQAEDVAVYYCQNDYTYPLTFGQGTKLEIK
Consider B3, for which the “antagonistic activity in comparison to antibody huAb1v1” value in experiment [6] turned out to be 20 fold. For the same molecule, the “Antagonist: Jurkat/Reporter assay (IC50 nM)” value in [7] stood at 2.69 nM.

B4: chimeric Ab1 (chAb1) (antibody, V domains shown)
VH: EVQLVESGGGLVKPGGSLKVSCAASGFTFSDYGMNWVRQAPEKGLEWIAYISSGRSNIYYADTVKGRFTISRDNAKNTLFLQMTSLRSEDTAMYYCARSWGYFDVWGTGTTVTVSS
VL: DIVMTQSPSSLTVTAGEMVTMSCKSSQSLLNSGNQKNYLTWFQQKPGQPPKLLIYWASTRESGVPDRFAGSGSGTDFTLTISSVQAEDLAVYYCQNDYTYPLTFGAGTKLEIK
notes: Murine Ab1 variable regions on human constant regions; also called chimeric antibody (Antibody 1 (Ab1))
For the molecule B4, in experiment [2], the IC50 is 2.3 nM. Also, in experiment [4], the “Antagonist: His-CD40L reporter assay IC50” value amounted to 0.4 nM and the “Antagonist: Jurkat/Reporter assay IC50” value worked out at 51 nM.

B5: Ab102 (antibody, human IgG1, kappa, L234A L235A, V domains shown)
VH: EVQLVESGGGLVKPGGSLRLSCAASGFTFSDYGMNWVRQAPGKGLEWIAYISSGRGNIYYADTVKGRFTISRDNAKNSLYLQMNSLRAEDTAVYYCARSWGYFDVWGQGTTVTVSS
VL: DIVMTQSPDSLAVSLGERATINCKSSQSLLNRGNQKNYLTWFQQKPGQPPKLLIYWASTRESGVPDRFSGSGSGTDFTLTISSLQAEDVAVYYCQNDYTYPLTFGQGTKLEIKR
notes: Humanized IgG1/kappa with L234A, L235A, T250Q, M428L (LALA-QL); also called VL huAbv1/VH huAb1v1CDR2v7/hCg1/k-LALA-QL; mAb CD40 Ab102 [hu IgG1/k]; LALA QL
The molecule B5 yielded an EC50 in experiment [8] of 1.4 nM. In addition, it took 0.89 nM to reach a half-maximal effect in experiment [9] (EC50). In experiment [10], the “Monocyte Activation Assay, Antagonist IC50 (nM), Experiment 1” value stood at 0.06 nM; the “Monocyte Activation Assay, Antagonist IC50 (nM), Experiment 2” value stood at 0.23 nM; the “Monocyte Activation Assay, Antagonist IC50 (nM), Experiment 3” value turned out to be 0.11 nM. Further, the binding result in experiment [11] is reported as “no binding (tested: 30 µg/mL (200 nM))”. Also, the binding result in experiment [12] was “no binding (tested: 30 µg/mL (200 nM))”.

B6: chimeric Ab2 (chAb2) (antibody, V domains shown)
VH: EVQLVESGGGLVKPGGSLKVSCAASGFTFSDYGMNWVRQSPEKGLEWIAYISSGRGNIYYADTVKGRFTISRDNAKNTLFLQMTSLRSEDTAMYYCARSWGYFDVWGTGTTVTVSS
VL: DIVMTQSPSSLTVTAGEKVTMSCKSSQSLLNSGNQKNYLTWFQQKPGQPPKLLIYWASTRESGVPDRFTGSGSGTDFTLTISSVQAEDLAVYYCQNDYTYPLTFGAGTKLELK
In the case of B6, the binding result in experiment [13] is listed as “binds”. The IC50 in experiment [2] stood at 1.4 nM. In addition, in [4], the “Antagonist: His-CD40L reporter assay IC50” value is 0.3 nM and the “Antagonist: Jurkat/Reporter assay IC50” value amounted to 3.4 nM.

B7: huAb1v5 (antibody, V domains shown)
VH: EVQLVESGGGLVKPGGSLRLSCAASGFTFSDYGMNWVRQAPGKGLEWIAYISSGRSNIYYADTVKGRFTISRDNAKNSLYLQMNSLRAEDTAVYYCARSWGYFDVWGQGTTVTVSS
VL: DIVMTQSPDSLAVSLGERATINCKSSQSLLNTGNQKNYLTWFQQKPGQPPKLLIYWASTRESGVPDRFSGSGSGTDFTLTISSLQAEDVAVYYCQNDYTYPLTFGQGTKLEIK
B7: the “Antagonist: Jurkat/Reporter assay IC50” value in experiment [5] was over 100 nM.

Values taken from patent US20160347850A1 (AbbVie / Abbott, published 2016).
